In test [1] the target is dansylated C3G_(277–296) peptide. The experiment in a line: stopped-flow kinetics (FRET, Trp to dansyl); variants, ionic strength series: 0.5 µM dansyl peptide mixed with N-SH3 variant (D138A 2.5-6.0 µM, E140A 3.0-5.5 µM); KD = koff/kon; 50 mM Hepes pH 7.5, 0.05 M NaCl, 10 °C.
For test [2] the target is unchanged. The experiment in a line: stopped-flow kinetics (FRET, Trp to dansyl); variants, ionic strength series: 0.5 µM dansyl peptide mixed with 2.0-4.5 µM N-SH3 variant; KD = koff/kon; 50 mM Hepes pH 7.5, 0 M NaCl, 10 °C.
Test [3] has the same target. The experiment in a line: stopped-flow kinetics (FRET, Trp to dansyl); variants, ionic strength series: 0.5 µM dansyl peptide mixed with N-SH3 variant (D138A 2.5-6.0 µM, E140A 3.0-5.0 µM); KD = koff/kon; 50 mM Hepes pH 7.5, 0.1 M NaCl, 10 °C.
Test [4] shares this target. The experiment in a line: stopped-flow kinetics (FRET, Trp to dansyl); variants, ionic strength series: 0.5 µM dansyl peptide mixed with N-SH3 variant (D138A 2.5-6.0 µM, E140A 3.0-5.5 µM); KD = koff/kon; 50 mM Hepes pH 7.5, 0.15 M NaCl, 10 °C.
Test [5] has the same target. The experiment in a line: stopped-flow kinetics (FRET, Trp to dansyl); pH series: 0.5 µM dansyl peptide mixed with 1.5-6.0 µM N-SH3; koff from displacement; Tris-HCl 50 mM pH 9.0, 0.5 M NaCl, 10 °C.
Test [6] shares this target. The experiment in a line: stopped-flow kinetics (FRET, Trp to dansyl); pH series: 0.5 µM dansyl peptide mixed with 0.5-5.0 µM N-SH3; koff from displacement; Hepes 50 mM pH 7.5, 0.5 M NaCl, 10 °C.
For test [7] the target is unchanged. The experiment in a line: stopped-flow kinetics (FRET, Trp to dansyl); pH series: 0.5 µM dansyl peptide mixed with 1.5-6.0 µM N-SH3; koff from displacement; Hepes 50 mM pH 7.0, 0.5 M NaCl, 10 °C.
Test [8] has the same target. The experiment in a line: stopped-flow kinetics (FRET, Trp to dansyl); ionic strength series: 0.5 µM dansyl peptide mixed with 0.5-5 µM N-SH3; koff from displacement; KD = koff/kon; Hepes 50 mM pH 7.0, 0.15 M NaCl, 10 °C.
Test [9] shares this target. The experiment in a line: stopped-flow kinetics (FRET, Trp to dansyl); pH series: 0.5 µM dansyl peptide mixed with 2.0-7.0 µM N-SH3; koff from displacement; 50 mM sodium acetate pH 5.5, 0.5 M NaCl, 10 °C.
Test [10] shares this target. The experiment in a line: stopped-flow kinetics (FRET, Trp to dansyl); pH series: 0.5 µM dansyl peptide mixed with 4.0-8.0 µM N-SH3; koff from displacement; 50 mM sodium acetate pH 5.0, 0.5 M NaCl, 10 °C.
Test [11] shares this target. The experiment in a line: stopped-flow kinetics (FRET, Trp to dansyl); ionic strength series: 0.5 µM dansyl peptide mixed with 0.5-5 µM N-SH3; koff from displacement; KD = koff/kon; Hepes 50 mM pH 7.0, 0.3 M NaCl, 10 °C.
The target is the same in test [12]. The experiment in a line: stopped-flow kinetics (FRET, Trp to dansyl); pH series: 0.5 µM dansyl peptide mixed with 0.5-5.0 µM N-SH3; koff from displacement; Bis-Tris 50 mM pH 6.5, 0.5 M NaCl, 10 °C.
Test [13] shares this target. The experiment in a line: stopped-flow kinetics (FRET, Trp to dansyl); ionic strength series: 0.5 µM dansyl peptide mixed with 1-5 µM N-SH3; koff from displacement with excess nondansylated peptide; KD = koff/kon; Hepes 50 mM pH 7.0, 0 M NaCl, 10 °C.
Test [14] shares this target. The experiment in a line: stopped-flow kinetics (FRET, Trp to dansyl); pH series: 0.5 µM dansyl peptide mixed with 1.5-6.0 µM N-SH3; koff from displacement; Tris-HCl 50 mM pH 8.0, 0.5 M NaCl, 10 °C.
The target is the same in test [15]. The experiment in a line: stopped-flow kinetics (FRET, Trp to dansyl); pH series: 0.5 µM dansyl peptide mixed with 1.5-6.0 µM N-SH3; koff from displacement; Tris-HCl 50 mM pH 8.5, 0.5 M NaCl, 10 °C.
For test [16] the target is unchanged. The experiment in a line: stopped-flow kinetics (FRET, Trp to dansyl); ionic strength series: 0.5 µM dansyl peptide mixed with 0.5-5 µM N-SH3; koff from displacement; KD = koff/kon; Hepes 50 mM pH 7.0, 1 M NaCl, 10 °C.
Test [17] shares this target. The experiment in a line: stopped-flow kinetics (FRET, Trp to dansyl); pH series: 0.5 µM dansyl peptide mixed with 1.0-5.0 µM N-SH3; koff from displacement; Bis-Tris 50 mM pH 6.0, 0.5 M NaCl, 10 °C.
The target is the same in test [18]. The experiment in a line: stopped-flow kinetics (FRET, Trp to dansyl); ionic strength series: 0.5 µM dansyl peptide mixed with 0.5-5 µM N-SH3; koff from displacement; KD = koff/kon; Hepes 50 mM pH 7.0, 0.5 M NaCl, 10 °C.
The target in test [19] is dansyl-C3G277-296 peptide (UniProt Q13905). The experiment in a line: Stopped-flow fluorescence kinetics (FRET from Trp164/Trp165 to dansyl; excitation 280 nm, 455 nm cut-off filter). kon from binding experiments, koff from separate displacement experiments, KD = koff/k. The note with it: 10 °C, 0.5 M NaCl added to all buffers, 50 mM sodium acetate at pH 5.0 and 5.5, 50 mM Bis-Tris at pH 6.0 and 6.5, 50 mM Hepes at pH 7.0 and 7.5, 50 mM Tris-HCl.

Test [20] shares this target. The experiment in a line: Stopped-flow fluorescence kinetics (FRET Trp to dansyl). kon from binding, koff from displacement, KD = koff/kon. The note with it: pH 7.0, 10 °C, Hepes 50 mM pH 7.0.
Test [21] has as its target N-SH3 domain of Crkl, D141A variant. The experiment in a line: other fluorescence titration; equilibrium: 1 µM N-SH3 D141A constant, increasing dansyl-C3G; quenching of Trp fluorescence at 350 nm (excitation 280 nm); hyperbolic fit; 50 mM Hepes pH 7.0, 10 °C.

Ends that are not written are not given here. * marks the point of attachment. Dansyl = CN(C)c1cccc2c(S(=O)(=O)*)cccc12

Consider “N-SH3 domain of Crkl, D138A variant (domain or fragment)”, for which the dissociation constant Kd – broadly, the equilibrium constant for the complex coming apart – in [1] was 2.6 µM; in [2] it was 900 nM; in [3], 3.8 µM; in test [4] it was 22 µM. Moreover, the koff – broadly, the rate constant with which the complex falls apart – in [1] was found to be 212 s⁻¹; in [2], 139 s⁻¹; in [3], 183 s⁻¹; in test [4], 254 s⁻¹. The on-rate (kon) (in general, a measure of how fast the partners come together) in [1] was 8.1e+07 M⁻¹ s⁻¹; in test [2], 1.58e+08 M⁻¹ s⁻¹; in test [3], 4.8e+07 M⁻¹ s⁻¹; in [4], 1.2e+07 M⁻¹ s⁻¹.

Regarding “N-terminal SH3 domain of Crkl, wild type (domain or fragment)”, the Kd in [5] came to 1000 nM; in test [6], 700 nM; in [7], 800 nM; in [8], 240 nM; in test [9] it was 2200 nM; in test [10] it was 5.9 µM. Also, the dissociation constant Kd in test [11] amounted to 390 nM; in test [12], 1000 nM; in test [13] it was 90 nM; in test [14], 800 nM; in [15], 600 nM; in [16], 750 nM. For the same molecule, the Kd in test [17] is 5.4 µM; in [18], 660 nM. Also, the off-rate constant (koff) in [5] turned out to be 39 s⁻¹; in [6], 34 s⁻¹; in test [7] it was 42 s⁻¹; in [8] it was 23 s⁻¹; in test [9], 81 s⁻¹; in test [10], 257 s⁻¹. The koff came to 32 s⁻¹ in [11]; 65 s⁻¹ in test [12]; 12 s⁻¹ in [13]; 46 s⁻¹ in test [14]; 40 s⁻¹ in test [15]; 51 s⁻¹ in test [16]. Besides, the koff in test [17] is 78 s⁻¹; in [18], 34 s⁻¹. Moreover, the association rate constant (kon) in [5] stood at 3.9e+07 M⁻¹ s⁻¹; in test [6] it was 5.1e+07 M⁻¹ s⁻¹; in test [7] it was 5.2e+07 M⁻¹ s⁻¹; in [8] it was 9.6e+07 M⁻¹ s⁻¹; in [9], 3.7e+07 M⁻¹ s⁻¹; in test [10], 4.4e+07 M⁻¹ s⁻¹. Further, the kon came out at 8.3e+07 M⁻¹ s⁻¹ in test [11]; 6.5e+07 M⁻¹ s⁻¹ in test [12]; 1.3e+08 M⁻¹ s⁻¹ in [13]; 5.6e+07 M⁻¹ s⁻¹ in test [14]; 6.8e+07 M⁻¹ s⁻¹ in [15]; 6.8e+07 M⁻¹ s⁻¹ in [16]. The on-rate constant (kon) was determined as 1.5e+07 M⁻¹ s⁻¹ in [17] and 5.1e+07 M⁻¹ s⁻¹ in test [18].

Consider “Crkl N-terminal SH3 domain (N-SH3), wild type”, for which the koff in test [19] (pH 5.0) worked out at 257 s⁻¹; in [19] (pH 5.5), 81 s⁻¹; in [19] (pH 6.0), 78 s⁻¹; in test [19] (pH 6.5) it was 65 s⁻¹; in test [19] (pH 7.0), 42 s⁻¹; in [19] (pH 7.5), 34 s⁻¹. For the same molecule, the off-rate constant (koff) in test [19] (pH 8.0) stood at 46 s⁻¹; in test [19] (pH 8.5) it was 40 s⁻¹; in test [19] (pH 9.0), 39 s⁻¹; in [20] (0 M NaCl added), 12 s⁻¹; in test [20] (0.15 M NaCl) it was 23 s⁻¹; in test [20] (0.3 M NaCl), 32 s⁻¹. Also, the results for the koff in test [20] (0.5 M NaCl) and in test [20] (1.0 M NaCl) were 34 s⁻¹ and 51 s⁻¹, respectively. The kon is 44 µM⁻¹ s⁻¹ in test [19] (pH 5.0); 37 µM⁻¹ s⁻¹ in [19] (pH 5.5); 15 µM⁻¹ s⁻¹ in test [19] (pH 6.0); 65 µM⁻¹ s⁻¹ in test [19] (pH 6.5); 52 µM⁻¹ s⁻¹ in test [19] (pH 7.0); 51 µM⁻¹ s⁻¹ in test [19] (pH 7.5). In addition, the on-rate (kon) in [19] (pH 8.0) was 56 µM⁻¹ s⁻¹; in test [19] (pH 8.5), 68 µM⁻¹ s⁻¹; in [19] (pH 9.0), 39 µM⁻¹ s⁻¹; in test [20] (0 M NaCl added), 130 µM⁻¹ s⁻¹; in test [20] (0.15 M NaCl) it was 96 µM⁻¹ s⁻¹; in test [20] (0.3 M NaCl) it was 83 µM⁻¹ s⁻¹. The on-rate (kon) is 51 µM⁻¹ s⁻¹ in test [20] (0.5 M NaCl) and 68 µM⁻¹ s⁻¹ in [20] (1.0 M NaCl).

Take “N-SH3 domain of Crkl, E140A variant (domain or fragment)”: the Kd in [1] turned out to be 3.7 µM; in test [2], 3300 nM; in test [3] it was 3.9 µM; in test [4], 4.2 µM. The koff is 330 s⁻¹ in test [1], 254 s⁻¹ in test [2], 302 s⁻¹ in [3] and 339 s⁻¹ in [4]. Moreover, the kon in test [1] is 8.9e+07 M⁻¹ s⁻¹; in [2], 7.8e+07 M⁻¹ s⁻¹; in test [3] it was 7.7e+07 M⁻¹ s⁻¹; in test [4], 8.1e+07 M⁻¹ s⁻¹.

B1: dansylated C3G_(277–296) peptide (peptide)
peptide: Dansyl-VVDNSPPPALPPKKRQSAPS
In test [21], B1 returned a Kd of 1070 nM.

The values above are taken from article PMC8705818, “Experimental Characterization of the Interaction between the N-Terminal SH3 Domain of Crkl and C3G” (International Journal of Molecular Sciences, 2021).
